Assay results reported in the supplement of paper PMC12042874.
± gives the uncertainty stated by the source.

Test: amyloid nucleation score (Sup35N fusion, yeast selection) (log enrichment); library NNK2; higher = more nucleation; inactive = no reads after selection
Procedure, shortened: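 Sup35N was fused to peptides of 20 random codons and expressed in psi-negative yeast, which were induced with 100 μM copper sulfate for 24 hours and then grown on medium lacking adenine and uracil for 7 days at 30°C. Plasmid inserts from input and output were sequenced on Illumina. The nucleation score is the DiMSum log enrichment of output over input reads, centred on the mode score of non-aggregating sequences. Sequences with under 100 input reads were left out, and random libraries had three technical output replicates.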

Substance	amyloid nucleation score
SDSFKDPTWREDNRGW	2.54 ± 0.085
MLLPLNYECGVQYS	-0.179 ± 0.37
PRMRWAVCERP	4.11 ± 0.096
EPGMKSRSNYMHGTKGEHHR	-0.131 ± 0.45
VPHHPRVGSLPIHNSAAPYM	-0.683 ± 0.45
SFPDSSRSKWIS	-0.775 ± 0.45
EALKVWERLCRLCSFWSYRK	7.871 ± 0.039
RWCGIGRLGVSNGIVPCWEM	0.647 ± 0.17
LCEALRFVIYCKLTSFVPFN	-0.632 ± 0.61
NSRRQERWCFIMTLVDFDVV	-0.431 ± 0.4
MWIYNY	2.78 ± 0.087
FMSFVYLHVPSANTCI	3.83 ± 0.045
GGYIQRNNDNRFAEQV	inactive
YIPLVVLHFSVRVWELSYWS	0.115 ± 1
SFCDLWLLAQDHAKLLGFIA	-0.499 ± 0.55
YSFLWSVTATFDVTIISGCA	3.1 ± 0.05
DSNDRWVW	-0.409 ± 0.76
KRDLGFRVVLWYLW	-0.942 ± 0.6
PGSRTWFGTMLAPDTCLHEM	1.7 ± 0.16
IHLLPLPYEVPSLLCTSRGP	0.258 ± 0.4
GVVHKDELRGLKVRESSEMG	0.271 ± 0.48
LSSHPLGLGHTMGHRKF	0.985 ± 0.48
YHCPVSW	-0.254 ± 0.32
VRCKVCPGRAYFDMRAPMQS	-0.512 ± 0.63
EVCMWIPHTAVRLYQS	1.15 ± 0.23

Substance	amyloid nucleation score
TVSNR	-1.27 ± 0.37
KVVITQSRVGTLESVKVFYV	1.77 ± 0.19
RSYQMSGPIALRKWEEEWAE	0.611 ± 0.46
LCKFFDTVVSMLGSVCSGNQ	3.22 ± 0.1
SKFWVARRCFASHLK	-0.272 ± 1.1
IYSISVLHCKGDLVYS	inactive
AVGYVMLMEMEALPISMWRG	7.027 ± 0.054
ITTSSSWCATILSPQFFKDV	-0.569 ± 0.44
CNTDDWK	0.496 ± 0.66
SALIF	0.115 ± 1
LLWCEWKHG	4.58 ± 0.076
ERSCSDIAGYPRPHGVQRNA	3.01 ± 0.081
SFLWLSMFVESAQVVNLQLY	5.485 ± 0.038
AANDMPMNSPIFSLGSDMPH	1.01 ± 0.48
SSRTPNYA	inactive
FITQVHSYWDSISTVTSDIL	inactive
GIFGMC	0.366 ± 0.56
SATFWLFVGVENVADMSKVG	0.261 ± 0.4
ASVRENFYIGLCRKCYYHNP	1.59 ± 0.16
DTSSYKTYDRLHQLYRNELR	0.709 ± 0.23
IGYVEAWWVFLVGSDAVRAP	-0.018 ± 1.1
LYVLVLMVCYRYGGKF	4.38 ± 0.063
LLNCNCIVV	8.569 ± 0.031
WVTTNMCYTHQFMFGANLVV	0.276 ± 1
ENKPTRDLYSTTR	-1.19 ± 0.54

Substance	amyloid nucleation score
ADHVDAYSFRDNDLSYQVYL	1.41 ± 0.46
HKKCSRKKFPAPRPSRTNTS	-0.605 ± 0.48
FHLEPLKWSWVST	-0.837 ± 1.1
INVLFRVSPRISAVRNVCST	-0.271 ± 0.36
PYLPLRYFCWGSK	-0.249 ± 0.79
VKREVLP	0.117 ± 0.37
FNAIYIKFTGRFSLTRDNRC	1.73 ± 0.21
VSLINFFVNL	8.418 ± 0.056
NTGFNCCNHFFRADGSLVEC	3.39 ± 0.15
QRQDDSVFHDVSHLGQGSSK	9.066 ± 0.078
SSAWLDLDIMLGLFVIVFTP	5.439 ± 0.044
YLNCDSFMRSVVYFNLWDIG	-1.57 ± 0.75
KNYVYWDLIHRFCLSTMR	1.62 ± 0.52
NGSDRWQASHRTNWGMVGFG	0.597 ± 0.44
TAWHFPCRQRDLQLVSKVTG	inactive
IIHYAFSRNWSP	1.54 ± 0.31
LALSFIMMCPYR	4.95 ± 0.079
ISTTFV	0.192 ± 0.79
VMATLHSLFVYRVDTFMFVE	0.358 ± 0.51
LKLRAPRVMSGIVDSLMWLT	-0.32 ± 0.63
LNWIIVCLNN	4.98 ± 0.058
CKLPDVTIMDYLLPFM	-0.333 ± 0.41
GVSGIEVVFYMLSKWGKHER	4.13 ± 0.054
IYRWPFVHPYMPLTRVAPDS	inactive
WLVRLVIGGFTQSGMWLTEI	1.06 ± 0.16

Substance	amyloid nucleation score
RTALKYPVSYSRFGSFADES	-0.73 ± 0.41
SLQYRTSDSQWYVVYCSQEP	0.484 ± 0.19
RECFGGVQYRVRFSKFPYES	-0.663 ± 0.5
CARMGASLWI	0.214 ± 0.65
TFHGFMCGQTLRGPFRLSWW	3.95 ± 0.088
WIVSGKLTTTFSLRR	5.15 ± 0.058
PRWKHLTWIP	-0.349 ± 0.64
NFLCVSDKGCDCVESKLG	8.145 ± 0.033
TVLILPPHTRSDINFMVHYT	4.43 ± 0.063
GIIRSWNIRPLEMPKE	0.176 ± 0.27
SDLTIVVSMLGFIPCSCHAF	6.328 ± 0.05
SLFCVPSSRKVLFLGRTVVV	0.123 ± 1
RTMWSIFHYSTVVSRVSTMA	1.23 ± 0.45
TNPSSKPAWVTSR	0.007 ± 0.79
RSSGSSWRLNYLDEDTVVAR	1 ± 0.4
VCRPDINVAHHPGFNFIVRS	inactive
VRPRGTKRCFFGRNHWRSSF	0.428 ± 0.66
GFVTDFIIKSI	-1.07 ± 0.64
TLSVTEGYSNLTSMWYGCKR	3.23 ± 0.15
LDVIDGYWTGRMTSSFSWMN	0.679 ± 0.47
LRFRATLSVLLYLWDTSRHV	1.76 ± 0.26
YTAWMALKNGRLVSGFKAR	0.009 ± 0.34
GYTIPLYQYKNWGLE	-0.515 ± 1
NERYP	-0.865 ± 0.33
SRLMVGGQSLVSW	5.716 ± 0.042

Substance	amyloid nucleation score
HLNNCALGTDLILNALDVS	-0.426 ± 0.54
EAHGSWL	0.764 ± 0.38
VLVKL	-1.17 ± 0.48
DFITVYECHCRIFGCVDREA	-0.352 ± 0.5
LFWFLCNVMERYRWNVDAYR	-0.625 ± 0.45
VLISVIWLRGRKLSVGWKKD	0.593 ± 0.53
LGVCICPCRAPEMKDTSHDA	4.92 ± 0.076
TGHWQLQNSSQA	0.841 ± 0.28
YISGQWCLMCRRRGISACVR	-0.182 ± 0.55
LFVASVSLTAHNRGGDTWRR	5.8 ± 0.084
SLMFGLIHSWDMK	inactive
LLYYPIDGQGDGWLWCVYRV	-0.067 ± 1.1
LRFRVLFVFPRDPW	-0.918 ± 0.78
FTFIGGYVSYYRCIPIGILP	0.33 ± 0.74
LWVLTSRDDVFMVVFFMTPK	-0.483 ± 0.5
VYYVSRLLTFFPVSSNPCGS	0.566 ± 0.56
SLPCRIISNLYLPA	-1.23 ± 1.1
MIICLEVKTGYST	3.73 ± 0.068
IINSDLMCLVNLFVNDSMRG	8.093 ± 0.059
LQVRLDTRR	0.043 ± 0.5
KLGLVKMSPYIMFTHVCDGW	-0.217 ± 0.23
KEVCEKTMFMCSWVK	-0.809 ± 1.1
DFLSVYSYIKWWAA	-0.886 ± 0.49
SRFISLSSEDVSALNTCNNR	1.25 ± 0.61
TTRSNEKIVFHGWTSVINRH	-0.696 ± 0.76

Substance	amyloid nucleation score
IGSRS	-1.25 ± 0.48
CCIFWYCRADAINNCLARFD	7.154 ± 0.041
YGPLTIDGFRHAYV	0.95 ± 0.29
SMRVECF	-1.82 ± 1.1
VARVY	-0.625 ± 0.36
DFQIFYFARLFRTV	-0.681 ± 0.79
IFFLPVTCTWGTQWRL	1.56 ± 0.15
ISRKVAGSRDCINVRSTIGL	-1.14 ± 0.44
RRPFVRRLFVLKNMFNSLGR	-0.707 ± 1.1
LFYGLGLICFLISFPIELNH	inactive
INLYPR	inactive
ALWFLLKQSGARYLDLAIPG	-0.06 ± 1.1
SKMYMPAVWMDGPSPQTTMW	0.73 ± 0.37
DIMAAIYMDG	0.715 ± 0.43
VFAWLIVGIWACLFGARIFW	-0.291 ± 0.4
GLCMYGVTAKRMLVVWRERG	8.804 ± 0.046
SQSMNGRQMHLYDRPSTGWF	inactive
SVDIGYS	0.586 ± 0.81
SRSCVKH	-1.27 ± 0.55
TPATVEYGDNCVYDY	-0.987 ± 0.44
PMMWESESYPLIF	-0.268 ± 0.79
QNFNILIGRGDVY	1.6 ± 0.23
GNYNLALDLPLTFERFRQSH	-0.736 ± 0.44
PMCPMSIVLCSATLLLELFV	5.414 ± 0.037
RLYCQRFPRFENITIWELLL	-1.71 ± 0.54

Substance	amyloid nucleation score
QRGFLRVPSLWCSFCLH	-0.176 ± 1.1
VACIFCLSSPHPC	6.48 ± 0.084
IYRSVTRKSERMCTVVGQVV	-0.279 ± 0.48
HVKTTYQLAFSNEQIM	-0.673 ± 0.48
SVDRVYGSTFIFSRGDR	8.113 ± 0.022
YIVLCYSFRFVFF	inactive
RRMMRP	2.2 ± 0.4
MSKEVVSSGYVIHIRRQRGG	0.82 ± 0.57
SVSLDMGFSLDSHMRGEGRS	5.22 ± 0.057
RAANLSLHSNGDTGGESVSD	inactive
AGYDATW	0.461 ± 0.65
NIYGDNVGCYSTECYNTKLI	-0.305 ± 0.74
ICYILILYTELVRSSLPFLG	inactive
RAVEEYAVPS	0.878 ± 0.35
LMDERGMTKMTYFVYLLKKA	0.661 ± 0.23
TPLDIICEIMNFIYNTVFRL	-0.501 ± 1.1
VSFRYCLYYYTENVVHMIVK	-1.85 ± 0.54
YMHILLLRFVQILTIRIVLL	-0.85 ± 0.37
FHLMFCGSL	-0.818 ± 0.49
GQAHRFGTHLRISAGVVPPV	0.01 ± 0.32
CGFHYFFRSTGYMAVAIIIR	inactive
YAIFYGRLNMCGSGLSVPRE	0.381 ± 0.62
